Laboratory results reported in the supplement of paper PMC9170038.

Test system: MS2 coat protein
Test: apparent KD of MS2 coat protein; designed switch direction (-1 OFF switch, 1 ON switch): -1; higher = weaker reporter binding
Summary of the method: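 The apparent KD reported per design is the median over clusters of curve fits to normalised cluster fluorescence. The RNA switches were transcribed on Illumina chips by stalled E. coli RNA polymerase. SNAP-549-labelled MS2 coat protein was titrated from 0.7 or 1.5 nM, doubling up to 3 µM, in Tris-HCl pH 7.5 buffer containing KCl, MgCl2, BSA, DTT, tRNA and Tween-20, with no input, 200 uM small-molecule ligand, or an oligonucleotide input.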

[1] = input ligand: microRNA oligo, concentration not stated
[2] = Eterna round: R95, input ligand: microRNA oligo, concentration not stated
[3] = Eterna round: R95, input ligand: FMN 200 uM
[4] = Eterna round: R95, input ligand: none

| Sequence | apparent KD of MS2 coat protein [1] [µM] | apparent KD of MS2 coat protein (input ligand: FMN 200 uM) [µM] | apparent KD of MS2 coat protein (input ligand: none) [µM] | also measured |
| --- | --- | --- | --- | --- |
| UAUAUAUAGUAAGGAUAUAUAUUUUUUUUUUAAAUAGAAGGUACAGACAUGAGGAUCACCCAUGUUAUAAUAUGGACAUGUGGA [JMF's Solution 3] (Eterna round: R96, puzzle: Exclusion NG 1) | 0.113 | – | – | – |
| UAUAUAUAGUAAGGAUAUGUAAUUAUUUUAUACACAGAAGGUACUGACAUGAGGAUCACCCAUGUUUUAGUGUGGGCAUGUAGA [JMF's solution 51] (Eterna round: R96, puzzle: Exclusion NG 1) | 0.0471 | – | – | – |
| UAUAUAUAGUAAGGAUAUGUAAUUAUUUUAUUAACAGAAGGUACUGACAUGAGGAUCACCCAUGUUUUAGUGUGGGCAUGUAGA [JMF's solution 47] (Eterna round: R96, puzzle: Exclusion NG 1) | 0.0726 | – | – | – |
| UAUAUAUAGUAAGGAUAUGUAGUUAUUUUAUAAACAGAAGGUACUGACAUGAGGAUCACCCAUGUUUUAGUGUGGGCAUGUAGA [JMF's solution 6] (Eterna round: R96, puzzle: Exclusion NG 1) | 0.0711 | – | – | – |
| UAUAUAUAGUAAGGAUAUGUAUUAAUGUUAUAAACAGAAGGUACUGACAUGAGGAUCACCCAUGUUUUAGUGUGGGCAUGUAGA [JMF's solution 78] (Eterna round: R96, puzzle: Exclusion NG 1) | 0.0738 | – | – | – |
| UAUAUAUAGUAAGGAUAUGUAUUAAUUGUAUAAACAGAAGGUACUGACAUGAGGAUCACCCAUGUUUUAGUGUGGGCAUGUAGA [JMF's solution 81] (Eterna round: R96, puzzle: Exclusion NG 1) | 0.0717 | – | – | – |
| UAUAUAUAGUAAGGAUAUGUAUUAAUUUUACAAACAGAAGGUACUGACAUGAGGAUCACCCAUGUUUUAGUGUGGGCAUGUAGA [JMF's solution 89] (Eterna round: R96, puzzle: Exclusion NG 1) | 0.0459 | – | – | – |
| UAUAUAUAGUAAGGAUAUGUAUUAAUUUUAUCAACAGAAGGUACUGACAUGAGGAUCACCCAUGUUUUAGUGUGGGCAUGUAGA [JMF's solution 92] (Eterna round: R96, puzzle: Exclusion NG 1) | 0.0652 | – | – | – |
| UAUAUAUAGUAAGGAUAUGUAUUUAUUUCAUAAACAGAAGGUACUGACAUGAGGAUCACCCAUGUUUUAGUGUGGGCAUGUAGA [JMF's solution 21] (Eterna round: R96, puzzle: Exclusion NG 1) | 0.0621 | – | – | – |
| UAUAUAUAGUAAGGAUAUGUAUUUAUUUUGUAAACAGAAGGUACUGACAUGAGGAUCACCCAUGUUUUAGUGUGGGCAUGUAGA [JMF's solution 22] (Eterna round: R96, puzzle: Exclusion NG 1) | 0.0785 | 0.147 | 0.141 | – |
| UAUAUGUCAGGAUAUUAGUAGUAAAUGAAUAAAAUUAUUACUGAGAAGGGACAUGAGGAUCACCCAUGUGCCUC [Mat - Exclusion 4 - Eli Mod - D24] (Eterna round: R97, puzzle: Exclusion 4) | – | 0.387 | 0.0374 | – |
| UAUAUGUCAGGAUAUUAGUAGUGGAUGAAUAAGAUUAUUGCUGAGAAGGGACAUGAGGAUCACCCAUGUUCCUC [JR_Ex4_Sub002] (Eterna round: R97, puzzle: Exclusion 4) | – | 0.0275 | 0.0185 | – |
| UAUAUGUGAGGAUAUCAGGUGUGCUAGCGAACUGGUACAUCUGAGAAGGCACAUGAGGAUCACCCAUGUAUCUU [Mat - Exclusion 4 - Mod of JL - D46] (puzzle: Exclusion 4) | – | – | – | apparent KD of MS2 coat protein [2]: 0.0263 µM |
| UAUCAGCAAGUGAGGAUAUAGAGAACGGUUGUUGGCUAGAAGGCACUUGAGGAUCACCCAAGUCGCAAAGUGGC [Mamausonbe] (Eterna round: R97, puzzle: Brourd's mod of Exclusion 4) | – | 0.134 | 0.0293 | – |
| UAUCAUCAUGUAGGAUAUGCGUGGCAAAGCUAUGCAGAAGGACAUGAGGAUCACCCAUGUUCUAGCGUCUGCGUACAGAUGCUA [Mat - Exclusion NG 1 - Mod of JL - D74] (Eterna round: R96, puzzle: Exclusion NG 1) | 0.0452 | 0.247 | 0.0687 | – |
| UAUCGGCGGACCCAGGCUUUUUGCUCGUCUUAUGCUAUGACAUGAGGAUCACCCAUGUGGUGGUGGUCCGUUGUAGU [JL ViennaUCT Bitein mod 11] (puzzle: Sensor v3, turn-off variant 2) | – | – | – | apparent KD of MS2 coat protein [3]: 0.0211 µM; apparent KD of MS2 coat protein [2]: 0.0113 µM; apparent KD of MS2 coat protein [4]: 0.0195 µM |
| UAUCGGGACUGAGGAUAUUCGUUCGAACGCGAAGAAGAAGGUAGUGUCAGGGACAUGAGGAUCACCCAUGUGAUUUCAGUCCCA [JL ViennaUCT Erinle mod 5] (Eterna round: R96, puzzle: Exclusion NG 1) | 0.0561 | 0.0982 | 0.099 | – |

| Sequence | apparent KD of MS2 coat protein [1] [µM] | apparent KD of MS2 coat protein (input ligand: FMN 200 uM) [µM] | apparent KD of MS2 coat protein (input ligand: none) [µM] | also measured |
| --- | --- | --- | --- | --- |
| UAUCUACAUGAGGAUCACCCAUGUGAGGAUAUCAAAACCAGAGCGGAUCUCUGGCCCAUGAGAAGGUACAUGGU [ElNandoxlusion 5 - Jieux - Exclusion 1] (Eterna round: R97, puzzle: Exclusion 1) | – | 0.0592 | 0.02 | – |
| UAUGGUUAAGUCAGGAUAUGCACGAAGAGAACAAAGCAGAAGGGACAUGAGGAUCACCCAUGUAAAGUCGUGUU [Ex4 #76] (Eterna round: R97, puzzle: Brourd's mod of Exclusion 4) | – | 0.0284 | 0.032 | – |
| UAUUAAACAAGCAGAUCCCACAUGAGGAUCACCCAUGUGCUCGUCUUAUAAGGUACUGUGACGAGAGUCACGGUACC [Mat - Sensor, turn-off var - Eli Mod - D63] (Eterna round: R97, puzzle: Sensor, turn-off variant 1) | – | 0.0425 | 0.0452 | – |
| UAUUAACAAGCAAGAUCCUACAUGAGGAUCACCCAUGUGCUCGUCUUGUAAGGUACUGUGACGAAAGUCACGGUACC [Sensor 3, v1 - 71] (puzzle: Sensor v3, turn-off variant 1) | – | – | – | apparent KD of MS2 coat protein [3]: 0.022 µM; apparent KD of MS2 coat protein [2]: 0.232 µM; apparent KD of MS2 coat protein [4]: 0.0189 µM |
| UAUUAACAAGCAAGGUCCCACAUGAGGAUCACCCAUGUGCUCGUCUUAUAAGGUACUGUGACGAAAGUCACGGUACC [Sensor 3, v1 - 81] (puzzle: Sensor v3, turn-off variant 1) | – | – | – | apparent KD of MS2 coat protein [3]: 0.0324 µM; apparent KD of MS2 coat protein [2]: 0.469 µM; apparent KD of MS2 coat protein [4]: 0.0336 µM |
| UAUUAAGCAAGCAGAUCCCACAUGAGGAUCACCCAUGUGCUCGUCUUAUAAGGUACUGUGACGAAAGUCACGGUACC [Sensor 3, v1 - 91 v12] (Eterna round: R97, puzzle: Sensor, turn-off variant 1) | – | 0.126 | 0.156 | – |
| UAUUACUCAGGAUAUAUGAUGUGAAACAUGAGGAUCACCCAUGUAAUAUUAUGGAUGUAAAUAGAAGGGAGAUAAU [Mat - Exclusion 5 - JL mod - D21] (puzzle: Exclusion 5) | – | – | – | apparent KD of MS2 coat protein [3]: 0.0371 µM; apparent KD of MS2 coat protein [2]: 0.0511 µM; apparent KD of MS2 coat protein [4]: 0.0569 µM |
| UAUUAGCAAGCAAGAUCCUACAUGAGGAUCACCCAUGUGCUCGUCUUAAACUCAGAAUUACUGAGAGCUCGUCUUAU [Winner reversed engineered 24] (Eterna round: R97, puzzle: Sensor, turn-off variant 1) | – | 0.443 | 0.515 | – |
| UAUUAGCAAGCCAGAUCCCACAUGAGGAUCACCCAUGUGCUCGUCUUAUAAGGUACUGUGACGAAAGUCACGGUACC [Sensor 3, v1 - 93] (puzzle: Sensor v3, turn-off variant 1) | – | – | – | apparent KD of MS2 coat protein [3]: 0.137 µM; apparent KD of MS2 coat protein [2]: 1.12 µM; apparent KD of MS2 coat protein [4]: 0.184 µM |
| UAUUAGCAAGCGAGAUCCCACAUGAGGAUCACCCAUGUAAAAGCAUCCAGAAUUACUGGGUGCAAAGCUCGUCUUAU [Winner reversed engineered 7] (Eterna round: R97, puzzle: Sensor, turn-off variant 1) | – | 0.0301 | 0.0248 | – |
| UAUUAGCAAGCGAGAUCCCACAUGAGGAUCACCCAUGUAAAGCAUCCAGAAUUACUGGGUGCAAAAGCUCGUCUUUA [Winner reversed engineered 5] (Eterna round: R97, puzzle: Sensor, turn-off variant 1) | – | 0.0287 | 0.04 | – |
| UAUUAGCAAGCGAGAUCCCACAUGAGGAUCACCCAUGUGCUCGUCUUAUAAAGUACUGUGACGAAAGUCACGGUACU [Mat - Sensor, turn-off var - Eli Mod - D7] (Eterna round: R97, puzzle: Sensor, turn-off variant 1) | – | 0.0152 | 0.0146 | – |
| UAUUAGCAAGCGAGAUCCCACAUGAGGAUCACCCAUGUGCUCGUCUUAUAAAGUACUGUGACGAUAGUCACGGUACA [Mat - Sensor, turn-off var - Eli Mod - D8] (Eterna round: R97, puzzle: Sensor, turn-off variant 1) | – | 0.0166 | 0.0156 | – |
| UAUUAGCAAGUAAGAUCCCACAUGAGGAUCACCCAUGUGCUCGUCAUAUCAGGUACUGUGAGGAAACUCACGGUACG [Sensor-V1 #86] (Eterna round: R97, puzzle: Sensor, turn-off variant 1) | – | 0.127 | 0.169 | – |
| UAUUAGCAAGUGAGAUCCGACAUGAGGAUCACCCAUGUGCUCGUCUUAUAAGGUAAUAUGACAAAAGUCAUAUUACC [Elimod 5 - Jieux - Sensor, turn-off variant 1] (Eterna round: R97, puzzle: Sensor, turn-off variant 1) | – | 0.301 | 0.293 | – |
| UAUUAGUAAGGAUAUCCCACGUAGGACUUCGGUCCUACGUGGGAGAAGGUACAUGAGGAUCACCCAUGUCUAUU [Mod of Fisker 13 - Jieux - Exclusion 4] (Eterna round: R97, puzzle: Exclusion 4) | – | 0.0166 | 0.0149 | – |
